{
  "source": "paper PMC8748511",
  "about": "(2022)",
  "molecular_target": "SARS-CoV-2 spike receptor binding domain (RBD) (SARS-CoV-2, UniProt P0DTC2)",
  "assay": "SPR",
  "data": [
    {"binder": "Fu2 (VHH) VHH: QVQLVESGGGLVQPGGSLRLSCAASGFTLDDYAIGWFRQAPGKEREGVSFITSSDGSTYYVDSVKGRFTISRDNAKNTVYLQMNSLTPEDTAIYYCAVGPSFSYTGSTYYRSELPWDYDYWGQGTQVTVSS", "values": [
      {"measurement": "Kd", "result": 0.118, "unit": "nM"}
    ]}
  ]
}
